Data reported in IntAct's records for PubMed 21771788.

B1: Mitogen-activated protein kinase kinase kinase 5 (Homo sapiens), Q99683 (parent)
chain: MSTEADEGITFSVPPFAPSGFCTIPEGGICRRGGAAAVGEGEEHQLPPPPPGSFWNVESAAAPGIGCPAATSSSSATRGRGSSVGGGSRRTTVAYVINEASQGQLVVAESEALQSLREACETVGATLETLHFGKLDFGETTVLDRFYNADIAVVEMSDAFRQPSLFYHLGVRESFSMANNIILYCDTNSDSLQSLKEIICQKNTMCTGNYTFVPYMITPHNKVYCCDSSFMKGLTELMQPNFELLLGPICLPLVDRFIQLLKVAQASSSQYFRESILNDIRKARNLYTGKELAAELARIRQRVDNIEVLTADIVINLLLSYRDIQDYDSIVKLVETLEKLPTFDLASHHHVKFHYAFALNRRNLPGDRAKALDIMIPMVQSEGQVASDMYCLVGRIYKDMFLDSNFTDTESRDHGASWFKKAFESEPTLQSGINYAVLLLAAGHQFESSFELRKVGVKLSSLLGKKGNLEKLQSYWEVGFFLGASVLANDHMRVIQASEKLFKLKTPAWYLKSIVETILIYKHFVKLTTEQPVAKQELVDFWMDFLVEATKTDVTVVRFPVLILEPTKIYQPSYLSINNEVEEKTISIWHVLPDDKKGIHEWNFSASSVRGVSISKFEERCCFLYVLHNSDDFQIYFCTELHCKKFFEMVNTITEEKGRSTEEGDCESDLLEYDYEYDENGDRVVLGKGTYGIVYAGRDLSNQVRIAIKEIPERDSRYSQPLHEEIALHKHLKHKNIVQYLGSFSENGFIKIFMEQVPGGSLSALLRSKWGPLKDNEQTIGFYTKQILEGLKYLHDNQIVHRDIKGDNVLINTYSGVLKISDFGTSKRLAGINPCTETFTGTLQYMAPEIIDKGPRGYGKAADIWSLGCTIIEMATGKPPFYELGEPQAAMFKVGMFKVHPEIPESMSAEAKAFILKCFEPDPDKRACANDLLVDEFLKVSSKKKKTQPKLSALSAGSNEYLRSISLPVPVLVEDTSSSSEYGSVSPDTELKVDPFSFKTRAKSCGERDVKGIRTLFLGIPDENFEDHSAPPSPEEKDSGFFMLRKDSERRATLHRILTEDQDKIVRNLMESLAQGAEEPKLKWEHITTLIASLREFVRSTDRKIIATTLSKLKLELDFDSHGISQVQVVLFGFQDAVNKVLRNHNIKPHWMFALDSIIRKAVQTAITILVPELRPHFSLASESDTADQEDLDVEDDHEEQPSNQTVRRPQAVIEDAVATSGVSTLSSTVSHDSQSAHRSLNVQLGRMKIETNRLLEELVRKEKELQALLHRAIEEKDQEIKHLKLKSQPIEIPELPVFHLNSSGTNTEDSELTDWLRVNGADEDTISRFLAEDYTLLDVLYYVTRDDLKCLRLRGGMLCTLWKAIIDFRNKQT
partner: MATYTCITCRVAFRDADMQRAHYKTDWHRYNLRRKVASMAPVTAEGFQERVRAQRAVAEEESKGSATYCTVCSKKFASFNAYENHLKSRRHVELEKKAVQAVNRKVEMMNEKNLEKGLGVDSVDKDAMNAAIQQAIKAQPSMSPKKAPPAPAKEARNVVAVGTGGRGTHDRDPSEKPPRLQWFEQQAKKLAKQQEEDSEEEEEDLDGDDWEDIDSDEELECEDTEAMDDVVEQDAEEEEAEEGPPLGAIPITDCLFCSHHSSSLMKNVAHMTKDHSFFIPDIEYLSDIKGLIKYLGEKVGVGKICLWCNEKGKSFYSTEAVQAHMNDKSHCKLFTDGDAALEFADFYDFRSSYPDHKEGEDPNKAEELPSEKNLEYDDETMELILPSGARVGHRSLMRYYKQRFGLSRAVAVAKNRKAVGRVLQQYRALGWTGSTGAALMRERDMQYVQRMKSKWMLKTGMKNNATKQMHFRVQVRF
B2: Cytoplasmic 60S subunit biogenesis factor ZNF622 (Homo sapiens), Q969S3 (parent)
chain: B1 partner

Variants of: B1
Settings: with zn622_human ZNF622, Q969S3

effect of a mutation on the interaction | Variant
decreasing interaction | C1351S
disrupting interaction | C1351S;C1360S
decreasing interaction | C1360S

Variants of: B1
Settings: with zn622_human ZNF622, Q969S3
Remark: another data set of the same source

effect of a mutation on the interaction | Variant
disrupting interaction | C1351S;C1360S

Variants of: B2
Settings: with m3k5_human MAP3K5, Q99683

effect of a mutation on the interaction | Variant
decreasing interaction | MATYTCITCRVAFRDADMQRAHYKTDWHRYNLRRKVASMAPVTAEGFQERVRAQRAVAEEESKGSATYCTVCSKKFASFNAYENHLKSRRHVELEKKAVQAVNRKVEMMNEKNLEKGLGVDSVDKDAMNAAIQQAIKAQPSMSPKKAPPAPAKEARNVVAVGTGGRGTHDRDPSEKPPRLQWFEQQAKKLAKQQEEDSEEEEEDLDGDDWEDIDSDEELECEDTEAMDDVVEQDAEEEEAEEGPPLGAIPITDCLFCSHHSSSLMKNVAHMTKDHSFFIPDIEYLSDIKGLIKYLGEKVGVGKISLWCNEKGKSFYSTEAVQAHMNDKSHCKLFTDGDAALEFADFYDFRSSYPDHKEGEDPNKAEELPSEKNLEYDDETMELILPSGARVGHRSLMRYYKQRFGLSRAVAVAKNRKAVGRVLQQYRALGWTGSTGAALMRERDMQYVQRMKSKWMLKTGMKNNATKQMHFRVQVRF [C305S]
decreasing interaction | MATYTCITCRVAFRDADMQRAHYKTDWHRYNLRRKVASMAPVTAEGFQERVRAQRAVAEEESKGSATYCTVCSKKFASFNAYENHLKSRRHVELEKKAVQAVNRKVEMMNEKNLEKGLGVDSVDKDAMNAAIQQAIKAQPSMSPKKAPPAPAKEARNVVAVGTGGRGTHDRDPSEKPPRLQWFEQQAKKLAKQQEEDSEEEEEDLDGDDWEDIDSDEELECEDTEAMDDVVEQDAEEEEAEEGPPLGAIPITDCLFCSHHSSSLMKNVAHMTKDHSFFIPDIEYLSDIKGLIKYLGEKVGVGKICLWSNEKGKSFYSTEAVQAHMNDKSHCKLFTDGDAALEFADFYDFRSSYPDHKEGEDPNKAEELPSEKNLEYDDETMELILPSGARVGHRSLMRYYKQRFGLSRAVAVAKNRKAVGRVLQQYRALGWTGSTGAALMRERDMQYVQRMKSKWMLKTGMKNNATKQMHFRVQVRF [C308S]
disrupting interaction | MATYTCITCRVAFRDADMQRAHYKTDWHRYNLRRKVASMAPVTAEGFQERVRAQRAVAEEESKGSATYCTVCSKKFASFNAYENHLKSRRHVELEKKAVQAVNRKVEMMNEKNLEKGLGVDSVDKDAMNAAIQQAIKAQPSMSPKKAPPAPAKEARNVVAVGTGGRGTHDRDPSEKPPRLQWFEQQAKKLAKQQEEDSEEEEEDLDGDDWEDIDSDEELECEDTEAMDDVVEQDAEEEEAEEGPPLGAIPITDCLFCSHHSSSLMKNVAHMTKDHSFFIPDIEYLSDIKGLIKYLGEKVGVGKISLWSNEKGKSFYSTEAVQAHMNDKSHCKLFTDGDAALEFADFYDFRSSYPDHKEGEDPNKAEELPSEKNLEYDDETMELILPSGARVGHRSLMRYYKQRFGLSRAVAVAKNRKAVGRVLQQYRALGWTGSTGAALMRERDMQYVQRMKSKWMLKTGMKNNATKQMHFRVQVRF [C305S;C308S]
